B1: RING finger protein Z (Lymphocytic choriomeningitis virus (strain Armstrong)), P18541 (parent)
chain: MGQGKSREEKGTNSTNRAEILPDTTYLGPLSCKSCWQKFDSLVRCHDHYLCRHCLNLLLSVSDRCPLCKYPLPTRLKISTAPSSPPPYEE

Variants of: B1
Conditions: with if4e_human EIF4E
With MGQGKSREEKGTNSTNRAEILPDTTYLGPLSCKSCWQKFDSLVRCHDHYLCRHCLNLLLSVSDRAPLAKYPLPTRLKISTAPSSPPPYEE [C65A;C68A] the “effect of a mutation on the interaction” value was “decreasing interaction”. For MGQGKSREEKGTNSTNRAEILPDTTYLGPLSGKSFWQKFDSLVRCHDHYLCRHCLNLLLSVSDRCPLCKYPLPTRLKISTAPSSPPPYEE [C32G;C35F], the “effect of a mutation on the interaction” value was “decreasing interaction”.
